How the values were obtained:
[1] = molecular target: T1, DNTTIP1 (TdIF1), His-tagged (human, UniProt Q9H147 1-329); assay: equimolar DNA; Tm 39.2 C; unit inferred, M assumed; Anisotropy: 15 nM DNA, 10 mM Na-PO4 pH 6.5, 150 mM KCl, 250 uM TCEP, 5% glycerol. Pull-down: 20 mM HEPES pH 7.9, 100 mM KCl, 10% glycerol, 0.05% CHAPS, poly(dIdC), oligo B, acetylated BSA, room temperature; details: protein: recombinant; tags: N-term 6xHis; chain copies: 2; label: fluorescein on first T of sense strand (anisotropy only); blunt
T1 sequence: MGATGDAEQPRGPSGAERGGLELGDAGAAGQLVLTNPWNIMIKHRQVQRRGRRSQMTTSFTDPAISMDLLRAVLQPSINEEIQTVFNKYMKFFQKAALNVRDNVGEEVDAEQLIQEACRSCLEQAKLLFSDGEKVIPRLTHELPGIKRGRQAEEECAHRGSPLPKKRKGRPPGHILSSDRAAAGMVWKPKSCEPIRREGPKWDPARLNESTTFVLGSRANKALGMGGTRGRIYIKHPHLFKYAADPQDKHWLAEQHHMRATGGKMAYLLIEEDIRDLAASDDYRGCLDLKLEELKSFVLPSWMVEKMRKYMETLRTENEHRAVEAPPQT

[2] = molecular target: T1, DNTTIP1 (TdIF1), His-tagged; assay: fluorescence anisotropy; Hill n 1.63; error = fit SE x15; Anisotropy: 15 nM DNA, 10 mM Na-PO4 pH 6.5, 150 mM KCl, 250 uM TCEP, 5% glycerol. Pull-down: 20 mM HEPES pH 7.9, 100 mM KCl, 10% glycerol, 0.05% CHAPS, poly(dIdC), oligo B, acetylated BSA, room temperature; details: protein: recombinant; tags: N-term 6xHis; chain copies: 2; label: fluorescein on first T of sense strand (anisotropy only); blunt
[3] = molecular target: T1, DNTTIP1 (TdIF1), His-tagged; assay: CD thermal denaturation; equimolar DNA; unit inferred, M assumed; Anisotropy: 15 nM DNA, 10 mM Na-PO4 pH 6.5, 150 mM KCl, 250 uM TCEP, 5% glycerol. Pull-down: 20 mM HEPES pH 7.9, 100 mM KCl, 10% glycerol, 0.05% CHAPS, poly(dIdC), oligo B, acetylated BSA, room temperature; details: protein: recombinant; tags: N-term 6xHis; chain copies: 2; blunt
[4] = molecular target: T1, DNTTIP1 (TdIF1), His-tagged; assay: fluorescence anisotropy; Hill n 1.78; error = fit SE x15; Anisotropy: 15 nM DNA, 10 mM Na-PO4 pH 6.5, 150 mM KCl, 250 uM TCEP, 5% glycerol. Pull-down: 20 mM HEPES pH 7.9, 100 mM KCl, 10% glycerol, 0.05% CHAPS, poly(dIdC), oligo B, acetylated BSA, room temperature; details: protein: recombinant; tags: N-term 6xHis; chain copies: 2; label: fluorescein on first T of sense strand; blunt
[5] = molecular target: T1, DNTTIP1 (TdIF1), His-tagged; assay: fluorescence anisotropy; Hill n 2.39; error = fit SE x15; Anisotropy: 15 nM DNA, 10 mM Na-PO4 pH 6.5, 150 mM KCl, 250 uM TCEP, 5% glycerol. Pull-down: 20 mM HEPES pH 7.9, 100 mM KCl, 10% glycerol, 0.05% CHAPS, poly(dIdC), oligo B, acetylated BSA, room temperature; details: protein: recombinant; tags: N-term 6xHis; chain copies: 2; label: fluorescein on first T of sense strand; blunt
[6] = molecular target: T1, DNTTIP1 (TdIF1), His-tagged; assay: fluorescence anisotropy; Hill n 1.89; error = fit SE x15; Anisotropy: 15 nM DNA, 10 mM Na-PO4 pH 6.5, 150 mM KCl, 250 uM TCEP, 5% glycerol. Pull-down: 20 mM HEPES pH 7.9, 100 mM KCl, 10% glycerol, 0.05% CHAPS, poly(dIdC), oligo B, acetylated BSA, room temperature; details: protein: recombinant; tags: N-term 6xHis; chain copies: 2; label: fluorescein on first T of sense strand (anisotropy only); blunt
[7] = molecular target: T1, DNTTIP1 (TdIF1), His-tagged; assay: equimolar DNA; Tm 32.7 to 43.5 C; unit inferred, M assumed; Anisotropy: 15 nM DNA, 10 mM Na-PO4 pH 6.5, 150 mM KCl, 250 uM TCEP, 5% glycerol. Pull-down: 20 mM HEPES pH 7.9, 100 mM KCl, 10% glycerol, 0.05% CHAPS, poly(dIdC), oligo B, acetylated BSA, room temperature; details: protein: recombinant; tags: N-term 6xHis; chain copies: 2; label: fluorescein on first T of sense strand (anisotropy only); blunt

B1: ATCC_25 (dsDNA)
DNA 1: AGATGATCCATATAAGGATATCCTT
DNA 2: AAGGATATCCTTATATGGATCATCT
Kd [1]: ~791 nM
Kd [2]: 137 ± 16.6 nM

B2: DNTTIP_cons (dsDNA)
DNA 1: CGCCAAATAAAAGTTGCATGGTCG
DNA 2: CGACCATGCAACTTTTATTTGGCG
Kd [3]: ~7.38 nM

B3: Scr_25 (dsDNA)
DNA 1: AGATCAGCAGAGCTCTGGTAGCTAT
DNA 2: ATAGCTACCAGAGCTCTGCTGATCT
Kd [4]: 156 ± 15.6 nM

B4: CATAKO_25 (dsDNA)
DNA 1: AGATGCTGAGAGCTCGCAGCTGCTT
DNA 2: AAGCAGCTGCGAGCTCTCAGCATCT
Kd [5]: 117 ± 15.6 nM

B5: TASHET_25 wt (dsDNA)
DNA 1: AGATGCTGCATATAAGCAGCTGCTT
DNA 2: AAGCAGCTGCTTATATGCAGCATCT
Kd [6]: 51.1 ± 4.2 nM
Kd [7]: ~0.392 nM

Reference: article PMC11115230, “Mitotic deacetylase complex (MiDAC) recognizes the HIV-1 core promoter to control activated viral gene expression”
